Measurements from the supplement of paper PMC12855868.

B1: library; numbered along this chain (parent)
chain: MAAAGGARLLRAASAVLGGPAGRWLHHAGSRAGSSGLLRNRGPGGSAEASRSLSVSARARSSSEDKITVHFINRDGETLTTKGKVGDSLLDVVVENNLDIDGFGACEGTLACSTCHLIFEDHIYEKLDAITDEENDMLDLAYGLTDRSRLGCQICLTKSMDNMTVRVPETVADARQSIDVGKTS

Variants of: B1
Assay: scaled log2 fold change in cell abundance, elesclomol vs control (0 = silent mean, 1 = nonsense mean) (scaled log2 ratio); higher = higher viability under elesclomol (loss of FDX1 cuproptosis function)
Conditions: glucose 10 mM
Experimental: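 Deep mutational scan of full-length human FDX1: a pooled saturation-mutagenesis ORF library (every residue 2-184 mutated to all 19 amino acids plus stop, and silent codons where available) was expressed by lentivirus in FDX1-knockout ABC1 (14 days) or HEK293T (11 days) cells grown with elesclomol (ES) or DMSO control. Variant abundance came from ORF sequencing. The log2 fold change (ES vs control, mean of duplicates) was centred on the silent-variant mean (0) and scaled to the nonsense-variant mean (1). Higher values mean greater viability under ES, i.e. loss of FDX1 function in cuproptosis.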

[1] = with ABC1 FDX1 KO, elesclomol 5 nM, 14 days
[2] = with HEK293T FDX1 KO, elesclomol 40 nM, 11 days
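Further: variant abundance is its share of total variant reads in each endpoint sample, from next-generation sequencing of the integrated ORF PCR-amplified out of genomic DNA.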

| Variant | scaled log2 fold change [1] | scaled log2 fold change [2] |
| --- | --- | --- |
| MCAAGGARLLRAASAVLGGPAGRWLHHAGSRAGSSGLLRNRGPGGSAEASRSLSVSARARSSSEDKITVHFINRDGETLTTKGKVGDSLLDVVVENNLDIDGFGACEGTLACSTCHLIFEDHIYEKLDAITDEENDMLDLAYGLTDRSRLGCQICLTKSMDNMTVRVPETVADARQSIDVGKTS [A2C] | 0.441 | 0.0714 |
| MIAAGGARLLRAASAVLGGPAGRWLHHAGSRAGSSGLLRNRGPGGSAEASRSLSVSARARSSSEDKITVHFINRDGETLTTKGKVGDSLLDVVVENNLDIDGFGACEGTLACSTCHLIFEDHIYEKLDAITDEENDMLDLAYGLTDRSRLGCQICLTKSMDNMTVRVPETVADARQSIDVGKTS [A2I] | -0.127 | -0.279 |
| MGAAGGARLLRAASAVLGGPAGRWLHHAGSRAGSSGLLRNRGPGGSAEASRSLSVSARARSSSEDKITVHFINRDGETLTTKGKVGDSLLDVVVENNLDIDGFGACEGTLACSTCHLIFEDHIYEKLDAITDEENDMLDLAYGLTDRSRLGCQICLTKSMDNMTVRVPETVADARQSIDVGKTS [A2G] | 0.451 | – |
| MTAAGGARLLRAASAVLGGPAGRWLHHAGSRAGSSGLLRNRGPGGSAEASRSLSVSARARSSSEDKITVHFINRDGETLTTKGKVGDSLLDVVVENNLDIDGFGACEGTLACSTCHLIFEDHIYEKLDAITDEENDMLDLAYGLTDRSRLGCQICLTKSMDNMTVRVPETVADARQSIDVGKTS [A2T] | 0.0597 | -0.252 |
| MQAAGGARLLRAASAVLGGPAGRWLHHAGSRAGSSGLLRNRGPGGSAEASRSLSVSARARSSSEDKITVHFINRDGETLTTKGKVGDSLLDVVVENNLDIDGFGACEGTLACSTCHLIFEDHIYEKLDAITDEENDMLDLAYGLTDRSRLGCQICLTKSMDNMTVRVPETVADARQSIDVGKTS [A2Q] | -0.344 | -0.344 |
| MLAAGGARLLRAASAVLGGPAGRWLHHAGSRAGSSGLLRNRGPGGSAEASRSLSVSARARSSSEDKITVHFINRDGETLTTKGKVGDSLLDVVVENNLDIDGFGACEGTLACSTCHLIFEDHIYEKLDAITDEENDMLDLAYGLTDRSRLGCQICLTKSMDNMTVRVPETVADARQSIDVGKTS [A2L] | 0.0991 | -0.056 |
| MPAAGGARLLRAASAVLGGPAGRWLHHAGSRAGSSGLLRNRGPGGSAEASRSLSVSARARSSSEDKITVHFINRDGETLTTKGKVGDSLLDVVVENNLDIDGFGACEGTLACSTCHLIFEDHIYEKLDAITDEENDMLDLAYGLTDRSRLGCQICLTKSMDNMTVRVPETVADARQSIDVGKTS [A2P] | -0.0191 | 0.0189 |
| MRAAGGARLLRAASAVLGGPAGRWLHHAGSRAGSSGLLRNRGPGGSAEASRSLSVSARARSSSEDKITVHFINRDGETLTTKGKVGDSLLDVVVENNLDIDGFGACEGTLACSTCHLIFEDHIYEKLDAITDEENDMLDLAYGLTDRSRLGCQICLTKSMDNMTVRVPETVADARQSIDVGKTS [A2R] | 0.187 | 0.489 |
| MVAAGGARLLRAASAVLGGPAGRWLHHAGSRAGSSGLLRNRGPGGSAEASRSLSVSARARSSSEDKITVHFINRDGETLTTKGKVGDSLLDVVVENNLDIDGFGACEGTLACSTCHLIFEDHIYEKLDAITDEENDMLDLAYGLTDRSRLGCQICLTKSMDNMTVRVPETVADARQSIDVGKTS [A2V] | 0.0325 | 0.473 |
| MSAAGGARLLRAASAVLGGPAGRWLHHAGSRAGSSGLLRNRGPGGSAEASRSLSVSARARSSSEDKITVHFINRDGETLTTKGKVGDSLLDVVVENNLDIDGFGACEGTLACSTCHLIFEDHIYEKLDAITDEENDMLDLAYGLTDRSRLGCQICLTKSMDNMTVRVPETVADARQSIDVGKTS [A2S] | -0.234 | 0.215 |
| MFAAGGARLLRAASAVLGGPAGRWLHHAGSRAGSSGLLRNRGPGGSAEASRSLSVSARARSSSEDKITVHFINRDGETLTTKGKVGDSLLDVVVENNLDIDGFGACEGTLACSTCHLIFEDHIYEKLDAITDEENDMLDLAYGLTDRSRLGCQICLTKSMDNMTVRVPETVADARQSIDVGKTS [A2F] | 0.0573 | -0.164 |
| MNAAGGARLLRAASAVLGGPAGRWLHHAGSRAGSSGLLRNRGPGGSAEASRSLSVSARARSSSEDKITVHFINRDGETLTTKGKVGDSLLDVVVENNLDIDGFGACEGTLACSTCHLIFEDHIYEKLDAITDEENDMLDLAYGLTDRSRLGCQICLTKSMDNMTVRVPETVADARQSIDVGKTS [A2N] | -0.0435 | 0.135 |
| MMAAGGARLLRAASAVLGGPAGRWLHHAGSRAGSSGLLRNRGPGGSAEASRSLSVSARARSSSEDKITVHFINRDGETLTTKGKVGDSLLDVVVENNLDIDGFGACEGTLACSTCHLIFEDHIYEKLDAITDEENDMLDLAYGLTDRSRLGCQICLTKSMDNMTVRVPETVADARQSIDVGKTS [A2M] | 0.0773 | 0.0994 |
| MDAAGGARLLRAASAVLGGPAGRWLHHAGSRAGSSGLLRNRGPGGSAEASRSLSVSARARSSSEDKITVHFINRDGETLTTKGKVGDSLLDVVVENNLDIDGFGACEGTLACSTCHLIFEDHIYEKLDAITDEENDMLDLAYGLTDRSRLGCQICLTKSMDNMTVRVPETVADARQSIDVGKTS [A2D] | 0.173 | 0.487 |
| MHAAGGARLLRAASAVLGGPAGRWLHHAGSRAGSSGLLRNRGPGGSAEASRSLSVSARARSSSEDKITVHFINRDGETLTTKGKVGDSLLDVVVENNLDIDGFGACEGTLACSTCHLIFEDHIYEKLDAITDEENDMLDLAYGLTDRSRLGCQICLTKSMDNMTVRVPETVADARQSIDVGKTS [A2H] | 0.1 | 0.132 |
| MEAAGGARLLRAASAVLGGPAGRWLHHAGSRAGSSGLLRNRGPGGSAEASRSLSVSARARSSSEDKITVHFINRDGETLTTKGKVGDSLLDVVVENNLDIDGFGACEGTLACSTCHLIFEDHIYEKLDAITDEENDMLDLAYGLTDRSRLGCQICLTKSMDNMTVRVPETVADARQSIDVGKTS [A2E] | -0.26 | 0.752 |
| MKAAGGARLLRAASAVLGGPAGRWLHHAGSRAGSSGLLRNRGPGGSAEASRSLSVSARARSSSEDKITVHFINRDGETLTTKGKVGDSLLDVVVENNLDIDGFGACEGTLACSTCHLIFEDHIYEKLDAITDEENDMLDLAYGLTDRSRLGCQICLTKSMDNMTVRVPETVADARQSIDVGKTS [A2K] | 0.0757 | -0.0727 |
